In the supplement of paper PMC10567573:

B1: EDARADD (parent)
chain: VEKVLRRWVDEEWPKRERGDPSRH
B2: USP39 (parent)
chain: TLSEAYIQIWKRRDNDETNQQGA

Variants of: B1
Assay: protein stability index of a GFP-peptide fusion (GPS, HEK-293T) (PSI 1-6); higher = more stable
Conditions: c terminus: a fixed tail appended
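Also: lentivirally expressed fusions sorted by FACS into six bins by GFP to DsRed ratio, PSI derived from sequencing read proportions per bin multiplied by bin number.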

Protein stability index, by site and new letter:
D20: R 2.48, S 2.68, T 3.07, V 2.71, W 2.61, Y 2.63
P21: A 3.34, C 2.51, D 3.57, E 3.51, F 2.28, G 3.02, H 2.52, I 2.36, K 3.46, L 2.5, M 2.39, N 3.21, Q 3.07, R 2.4, S 3.25, T 2.68, V 2.19, W 1.89, Y 2.34
S22: A 2.48, C 2.2, D 3.26, E 3.63, F 1.83, G 2.31, H 2.55, I 2.52, K 2.46, M 2.17, N 2.78, P 2.6, Q 2.96, R 3.51, T 2.93, V 2.66, W 1.84, Y 2.52
R23: A 2.83, C 3, D 3.05, E 3.71, F 1.98, G 2.59, H 3.38, I 3.32, K 2.83, L 2.66, M 2.45, N 2.81, P 3.56, Q 2.96, S 3.07, T 2.58, V 2.44, W 1.88, Y 2.87
H24: A 2.59, C 2.13, D 3.06, E 2.48, F 2.61, G 2.71, I 2.3, K 3.04, L 3.12, M 3.47, N 2.75, P 2.37, Q 3.56, R 3.5, S 2.81, T 2.96, V 2.93, W 1.84, Y 2.41

Variants of: B2
Assay: as above
Conditions: c terminus: native

Protein stability index of substitutions, site by site:
T1: A 2.37, C 2.34, D 2.35, E 2.59, F 2.16, G 3.34, H 1.99, I 2.31, K 2.36, M 2.66, N 2.99, P 2.54, Q 2.32, R 2.79, S 2.54, V 2.07, Y 1.78
L2: A 2.8, C 2.32, D 3.46, E 3.08, F 2.51, G 3.77, H 3.1, I 2.77, K 2.74, M 2.98, N 3.33, P 2.6, Q 3.35, R 2.85, S 3.08, T 2.72, V 2.73, W 2.63, Y 2.12
S3: A 3.23, C 2.38, D 3.55, E 2.95, F 2.14, G 2.32, H 2.5, I 2.3, K 2.68, L 3.01, M 2.01, N 2.2, P 3.01, Q 2.38, R 2.78, T 2.65, V 1.11, W 2.32, Y 1.98
E4: A 2.46, C 1.73, D 2.56, F 2.09, G 2.23, H 2.28, I 1.96, K 2.4, L 2.49, M 2.09, N 2.05, P 3.17, Q 2.32, R 2.97, S 1.76, T 2.74, V 2.12, W 1.73, Y 2.04
A5: C 3.14, D 3.45, E 2.75, F 1.78, G 2.86, H 2.39, I 2.02, K 2.2, L 2.29, M 2.19, N 2.6, P 3.69, Q 2.69, R 3.47, S 2.31, T 2.38, V 2.93, W 2.18, Y 2.57
Y6: A 3.45, C 2.98, D 3.66, E 2.32, F 2.9, G 3.19, H 3.07, I 2.88, K 3.02, L 2.2, M 2.26, N 1.9, P 2.61, Q 3.57, R 3.02, S 2.89, T 3.32, V 3.28
I7: A 2.93, C 2.41, D 3.29, E 3.69, F 2.27, G 2.56, H 3.07, K 3.71, L 2.44, N 2.82, P 3.23, Q 3.2, R 2.68, S 3.32, T 2.53, V 2.72, W 3.49, Y 2.18
Q8: A 2.92, C 1.95, D 2.48, E 3, F 2, G 2.22, H 2.24, I 1.5, K 3.05, L 1.42, M 1.59, N 2.63, P 1.9, R 3.93, S 2.48, T 1.98, V 1.78, Y 2.07
I9: A 2.66, C 2.12, D 2.84, E 3.11, F 2.03, G 2.54, H 2.68, K 3.13, L 2.21, M 2.5, N 3.46, P 3.42, Q 3.23, R 3.3, S 2.8, T 2.7, V 2.67, W 1.73, Y 3.19
W10: A 3.39, C 2.45, D 3.97, E 3.69, F 2.78, G 3.27, H 2.9, I 2.72, K 3.23, L 2.96, M 2.5, N 2.85, P 3.41, Q 3.46, R 3.49, S 3.19, T 2.92, V 3.58, Y 2.53
K11: A 1.74, C 3.3, D 1.58, E 1.92, F 2.04, G 2.39, H 1.88, I 2.21, L 2.32, M 2.63, N 2.41, P 1.72, Q 1.78, R 1.86, S 3.78, T 3.14, V 1.67, Y 1.44
R12: A 2.15, C 2, D 3.2, E 2.65, F 2.61, G 3.15, H 1.96, I 3.09, K 2.89, L 1.98, M 2.1, N 3.13, P 2.07, Q 2.87, S 2.53, T 2.65, V 1.86, W 1.18, Y 1.81
R13: C 2.06, D 3.22, E 2.63, F 1.48, G 1.93, H 2.43, I 2.52, K 2.05, L 1.84, M 2.14, N 2.37, P 2.46, Q 4.3, S 2.07, T 2.36, V 1.97, Y 1.56
D14: A 2.1, C 2.08, E 2.07, F 2, G 2.06, H 2.19, I 2.6, K 2.67, L 1.94, M 2.01, N 1.71, P 2.37, Q 2.12, R 2.74
